Reference: patent US20230357370A1

Each substance was assayed against RSV F peptides F85-93 and F249-258 (respiratory syncytial virus, A2 strain).

Compared with “splenic T cells of BALB/c mice vaccinated with A317 RNA in liposomes RV01(01) (cells without a defined receptor)”, “splenic T cells of BALB/c mice vaccinated with A317 RNA formulated with CNE17 (cells without a defined receptor)” is lower in CD8+ CD4- splenic T cells: % cytokine-positive, IFNg+ (intracellular cytokine immunofluorescence): 3.69% for the first, 1.25% for the second.

Going from “splenic T cells of unvaccinated BALB/c mice (cells without a defined receptor)” to “splenic T cells of BALB/c mice vaccinated with VRPs expressing RSV-F (cells without a defined receptor)”, the CD8+ CD4- splenic T cells: % cytokine-positive, IFNg+ (intracellular cytokine immunofluorescence) rises from 0.01% to 3.48%.

Compared with “splenic T cells of BALB/c mice vaccinated with A317 RNA delivered using electroporation (cells without a defined receptor)”, “splenic T cells of BALB/c mice vaccinated with naked self-replicating RNA A317 (cells without a defined receptor)” is lower in CD8+ CD4- splenic T cells: % cytokine-positive, IFNg+ (intracellular cytokine immunofluorescence): 0.85% for the first, 0.74% for the second.

The substances below were run against RSV F peptide 51-66 (respiratory syncytial virus, A2 strain).

Going from “splenic T cells of BALB/c mice vaccinated with A317 RNA in liposomes RV01(01) (cells without a defined receptor)” to “splenic T cells of BALB/c mice vaccinated with A317 RNA formulated with CNE17 (cells without a defined receptor)”, the CD4+ CD8- splenic T cells: % cytokine-positive, TNFa+ (intracellular cytokine immunofluorescence) falls from 0.09% to 0.05%.

Compared with “splenic T cells of unvaccinated BALB/c mice (cells without a defined receptor)”, “splenic T cells of BALB/c mice vaccinated with VRPs expressing RSV-F (cells without a defined receptor)” is higher in CD4+ CD8- splenic T cells: % cytokine-positive, TNFa+ (intracellular cytokine immunofluorescence): 0% for the first, 0.1% for the second.

First: splenic T cells of BALB/c mice vaccinated with A317 RNA delivered using electroporation (cells without a defined receptor)
Second: splenic T cells of BALB/c mice vaccinated with naked self-replicating RNA A317 (cells without a defined receptor)
The CD4+ CD8- splenic T cells: % cytokine-positive, TNFa+ (intracellular cytokine immunofluorescence) of the first is higher: 0.05% for the first, 0.03% for the second.
